Experimental data reported in patent US20180155451A1 (published 2018).

B1: GpH7-A5/GpH7-B3 variant S324_11K/GpL16-k0 (antibody, human IgG1, kappa)
heavy 1: not shown
heavy 2: not shown
light: DIVMTQSPLSLPVTPGEPASISCQASESLVHSNRNTYLHWYLQKPGQSPQLLIYKVSNRFSGVPDRFSGSGSGTDFTLKISRVEAEDVGVYYCSQNTHVPPTFGQGTKVEIERTVAAPSVFIFPPSDEQLKSGTASVVCLLNNFYPREAKVQWKVDNALQSGNSQESVTEQDSKDSTYSLSSTLTLSKADYEKHKVYACEVTHQGLSSPVTKSFNRGEC
notes: mutation in one H chain only; also called He Ab S324_11K; S324K
B2: GpH7-A5/GpH7-B3 variant S337_15Y/GpL16-k0 (antibody, human IgG1, kappa)
heavy 1: not shown
heavy 2: not shown
light: B1 light
notes: mutation in one H chain only; also called He Ab S337_15Y; S337Y
B3: GpH7-A5/GpH7-B3 variant S337_09D/GpL16-k0 (antibody, human IgG1, kappa)
heavy 1: not shown
heavy 2: not shown
light: B1 light
notes: mutation in one H chain only; also called He Ab S337_09D; S337D
B4: GpH7-A5/GpH7-B3 variant T335_05P/GpL16-k0 (antibody, human IgG1, kappa)
heavy 1: not shown
heavy 2: not shown
light: B1 light
notes: mutation in one H chain only; also called He Ab T335_05P; T335P
B5: GpH7-A5/GpH7-B3 variant T335_04F/GpL16-k0 (antibody, human IgG1, kappa)
heavy 1: not shown
heavy 2: not shown
light: B1 light
notes: mutation in one H chain only; also called He Ab T335_04F; T335F
B6: GpH7-A5/GpH7-B3 variant S337_12R/GpL16-k0 (antibody, human IgG1, kappa)
heavy 1: not shown
heavy 2: not shown
light: B1 light
notes: mutation in one H chain only; also called He Ab S337_12R; S337R
B7: GpH7-A5/GpH7-B3 variant S337_01G/GpL16-k0 (antibody, human IgG1, kappa)
heavy 1: not shown
heavy 2: not shown
light: B1 light
notes: mutation in one H chain only; also called He Ab S337_01G; S337G
B8: GpH7-A5/GpH7-B3 variant S337_20W/GpL16-k0 (antibody, human IgG1, kappa)
heavy 1: not shown
heavy 2: not shown
light: B1 light
notes: mutation in one H chain only; also called He Ab S337_20W; S337W
B9: GpH7-A5/GpH7-B3 variant S337_19Q/GpL16-k0 (antibody, human IgG1, kappa)
heavy 1: not shown
heavy 2: not shown
light: B1 light
notes: mutation in one H chain only; also called He Ab S337_19Q; S337Q
B10: GpH7-A5/GpH7-B3 variant S324_15Y/GpL16-k0 (antibody, human IgG1, kappa)
heavy 1: not shown
heavy 2: not shown
light: B1 light
notes: mutation in one H chain only; also called He Ab S324_15Y; S324Y
B11: GpH7-A5/GpH7-B3 variant S324_19Q/GpL16-k0 (antibody, human IgG1, kappa)
heavy 1: not shown
heavy 2: not shown
light: B1 light
notes: mutation in one H chain only; also called He Ab S324_19Q; S324Q
B12: GpH7-A5/GpH7-B3 variant S337_04F/GpL16-k0 (antibody, human IgG1, kappa)
heavy 1: not shown
heavy 2: not shown
light: B1 light
notes: mutation in one H chain only; also called He Ab S337_04F; S337F
B13: GpH7-A5/GpH7-B3 variant S337_08L/GpL16-k0 (antibody, human IgG1, kappa)
heavy 1: not shown
heavy 2: not shown
light: B1 light
notes: mutation in one H chain only; also called He Ab S337_08L; S337L
B14: GpH7-A5/GpH7-B3 variant S324_12R/GpL16-k0 (antibody, human IgG1, kappa)
heavy 1: not shown
heavy 2: not shown
light: B1 light
notes: mutation in one H chain only; also called He Ab S324_12R; S324R
B15: GpH7-A5/GpH7-B3 variant S337_03V/GpL16-k0 (antibody, human IgG1, kappa)
heavy 1: not shown
heavy 2: not shown
light: B1 light
notes: mutation in one H chain only; also called He Ab S337_03V; S337V
B16: GpH7-A5/GpH7-B3 variant S337_07I/GpL16-k0 (antibody, human IgG1, kappa)
heavy 1: not shown
heavy 2: not shown
light: B1 light
notes: mutation in one H chain only; also called He Ab S337_07I; S337I
B17: GpH7-A5/GpH7-B3 variant S337_06M/GpL16-k0 (antibody, human IgG1, kappa)
heavy 1: not shown
heavy 2: not shown
light: B1 light
notes: mutation in one H chain only; also called He Ab S337_06M; S337M
B18: GpH7-A5/GpH7-B3 variant S337_02A/GpL16-k0 (antibody, human IgG1, kappa)
heavy 1: not shown
heavy 2: not shown
light: B1 light
notes: mutation in one H chain only; also called He Ab S337_02A; S337A
B19: GpH7-A5/GpH7-B3 variant S324_18N/GpL16-k0 (antibody, human IgG1, kappa)
heavy 1: not shown
heavy 2: not shown
light: B1 light
notes: mutation in one H chain only; also called He Ab S324_18N; S324N
B20: GpH7-A5/GpH7-B3 variant S324_20W/GpL16-k0 (antibody, human IgG1, kappa)
heavy 1: not shown
heavy 2: not shown
light: B1 light
notes: mutation in one H chain only; also called He Ab S324_20W; S324W
B21: GpH7-A5/GpH7-B3 variant S324_14T/GpL16-k0 (antibody, human IgG1, kappa)
heavy 1: not shown
heavy 2: not shown
light: B1 light
notes: mutation in one H chain only; also called He Ab S324_14T; S324T
B22: GpH7-A5/GpH7-B3 variant S337_10E/GpL16-k0 (antibody, human IgG1, kappa)
heavy 1: not shown
heavy 2: not shown
light: B1 light
notes: mutation in one H chain only; also called He Ab S337_10E; S337E
B23: GpH7-A5/GpH7-B3 variant S324_16H/GpL16-k0 (antibody, human IgG1, kappa)
heavy 1: not shown
heavy 2: not shown
light: B1 light
notes: mutation in one H chain only; also called He Ab S324_16H; S324H

molecular target: T1, FcγRIa extracellular domain with C-terminal His tag (human, UniProt P12314 16-292); assay: SPR Biacore, relative FcγRIa binding vs GpH7-A5/GpH7-B3/GpL16-k0
T1 construct: extracellular domain; also called FcgRI; CD64; not shown: His tag at the C terminus
T1 sequence (P12314 16-292): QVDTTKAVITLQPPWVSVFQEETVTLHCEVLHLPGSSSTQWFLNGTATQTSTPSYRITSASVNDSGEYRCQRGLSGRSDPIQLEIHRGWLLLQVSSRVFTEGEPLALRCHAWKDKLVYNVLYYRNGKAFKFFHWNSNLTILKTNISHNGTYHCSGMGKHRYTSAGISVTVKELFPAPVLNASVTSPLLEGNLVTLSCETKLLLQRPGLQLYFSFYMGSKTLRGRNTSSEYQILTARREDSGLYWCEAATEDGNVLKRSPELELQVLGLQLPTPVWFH

He/Con_1a | Binder
102 % of HeCon Ab (=100) | B1
104 % of HeCon Ab (=100) | B2
106 % of HeCon Ab (=100) | B3
106 % of HeCon Ab (=100) | B4
105 % of HeCon Ab (=100) | B5
106 % of HeCon Ab (=100) | B6
107 % of HeCon Ab (=100) | B7
105 % of HeCon Ab (=100) | B8
105 % of HeCon Ab (=100) | B9
114 % of HeCon Ab (=100) | B10
112 % of HeCon Ab (=100) | B11
106 % of HeCon Ab (=100) | B12
105 % of HeCon Ab (=100) | B13
102 % of HeCon Ab (=100) | B14
107 % of HeCon Ab (=100) | B15
105 % of HeCon Ab (=100) | B16
107 % of HeCon Ab (=100) | B17
106 % of HeCon Ab (=100) | B18
116 % of HeCon Ab (=100) | B19
114 % of HeCon Ab (=100) | B20
121 % of HeCon Ab (=100) | B21
106 % of HeCon Ab (=100) | B22
113 % of HeCon Ab (=100) | B23
